Molecular target: human DNM1L GTPase-GED (GG) fusion protein (human) (UniProt O00429)
Experiment: SEC; 60 µM protein incubated 30 min at 37°C with 2 mM GDP or GTP, 20 mM NaF and 2 mM AlCl3 (transition state mimic GDP/AlF4-); 20 mM Tris/HCl pH 8.0, 150 mM NaCl, 2 mM EGTA, 4 mM MgCl2, 1 mM DTT; Superdex S 75 HR 10/300; dimer at 9.5 ml, monomer at 11 ml

## human DNM1L GTPase-GED (GG) fusion protein (from UniProt O00429 1-325) (domain or fragment)
  stoichiometry N: 2

From paper PMC3747075
